From patent publication US20210155689A1 (SHANGHAI PHARMAEXPLORER, published 2021)
Values joined by “and” are separate entries in the source; they are usually repeats but may differ in a detail not shown here. Equal values may be shown once.

Assays:
[1] = target: monkey LAG-3 (full length, on the cell surface) (monkey); experiment: FACS, HEK293-cLAG-3; 0.000 nM
[2] = target: monkey LAG-3 (full length, on the cell surface) (monkey); experiment: FACS, HEK293-cLAG-3; 40.000 nM
[3] = target: monkey LAG-3 (full length, on the cell surface) (monkey); experiment: FACS, HEK293-cLAG-3; 0.064 nM
[4] = target: human LAG-3 (full length, on the cell surface) (human) (UniProt P18627); experiment: FACS, HEK293-hLAG-3; 0.320 nM
[5] = target: human LAG-3 (full length, on the cell surface) (human) (UniProt P18627); experiment: FACS, HEK293-hLAG-3; 40.000 nM
[6] = target: human LAG-3 (full length, on the cell surface) (human) (UniProt P18627); experiment: FACS, HEK293-hLAG-3; 8.000 nM
[7] = target: human LAG-3 protein with hFc tag (hLAG-3-hFc protein) (human) (UniProt P18627); experiment: FACS, blocks LAG-3-hFc binding to MHC II on Raji; 0.823 nM
[8] = target: human LAG-3 (full length, on the cell surface) (human) (UniProt P18627); experiment: FACS, HEK293-hLAG-3; 200.000 nM
[9] = target: human LAG-3 (full length, on the cell surface) (human) (UniProt P18627); experiment: FACS, HEK293-hLAG-3; 1.600 nM
[10] = target: human LAG-3 protein with hFc tag (hLAG-3-hFc protein) (human) (UniProt P18627); experiment: FACS, blocks LAG-3-hFc binding to MHC II on Raji; 7.407 nM
[11] = target: human LAG-3 (full length, on the cell surface) (human) (UniProt P18627); experiment: FACS, HEK293-hLAG-3; 0.064 nM
[12] = target: human LAG-3 protein with hFc tag (hLAG-3-hFc protein) (human) (UniProt P18627); experiment: FACS, blocks LAG-3-hFc binding to MHC II on Raji; 22.222 nM
[13] = target: human LAG-3 protein with hFc tag (hLAG-3-hFc protein) (human) (UniProt P18627); experiment: FACS, blocks LAG-3-hFc binding to MHC II on Raji; 66.667 nM
[14] = target: human LAG-3 (full length, on the cell surface) (human) (UniProt P18627); experiment: FACS, HEK293-hLAG-3; 0.013 nM
[15] = target: human LAG-3 protein with hFc tag (hLAG-3-hFc protein) (human) (UniProt P18627); experiment: FACS, blocks LAG-3-hFc binding to MHC II on Raji; 0.000 nM
[16] = target: human LAG-3 protein with hFc tag (hLAG-3-hFc protein) (human) (UniProt P18627); experiment: FACS, blocks LAG-3-hFc binding to MHC II on Raji; 2.469 nM
[17] = target: monkey LAG-3 (full length, on the cell surface) (monkey); experiment: FACS, HEK293-cLAG-3; 0.320 nM
[18] = target: monkey LAG-3 (full length, on the cell surface) (monkey); experiment: FACS, HEK293-cLAG-3; 1.600 nM
[19] = target: human LAG-3 protein with hFc tag (hLAG-3-hFc protein) (human) (UniProt P18627); experiment: FACS, blocks LAG-3-hFc binding to MHC II on Raji; 200.000 nM
[20] = target: human LAG-3 protein with hFc tag (hLAG-3-hFc protein) (human) (UniProt P18627); experiment: FACS, blocks LAG-3-hFc binding to MHC II on Raji; 0.274 nM
[21] = target: monkey LAG-3 (full length, on the cell surface) (monkey); experiment: FACS, HEK293-cLAG-3; 200.000 nM
[22] = target: monkey LAG-3 (full length, on the cell surface) (monkey); experiment: FACS, HEK293-cLAG-3; 0.013 nM
[23] = target: monkey LAG-3 (full length, on the cell surface) (monkey); experiment: FACS, HEK293-cLAG-3; 8.000 nM
[24] = target: human LAG-3 (full length, on the cell surface) (human) (UniProt P18627); experiment: FACS, HEK293-hLAG-3; 0.000 nM
[25] = target: human LAG-3 (full length, on the cell surface) (human) (UniProt P18627); experiment: cell-based or functional assay
[26] = target: human LAG-3 protein with hFc tag (hLAG-3-hFc protein) (human) (UniProt P18627); experiment: ELISA, hLAG-3-hFc coated 1 ug/ml; 6.0000 ug/mL
[27] = target: human LAG-3 protein with hFc tag (hLAG-3-hFc protein) (human) (UniProt P18627); experiment: ELISA, hLAG-3-hFc coated 1 ug/ml; 1.2000 ug/mL
[28] = target: human LAG-3 protein with hFc tag (hLAG-3-hFc protein) (human) (UniProt P18627); experiment: ELISA, hLAG-3-hFc coated 1 ug/ml; 0.2400 ug/mL
[29] = target: human LAG-3 protein with hFc tag (hLAG-3-hFc protein) (human) (UniProt P18627); experiment: ELISA, hLAG-3-hFc coated 1 ug/ml; 0.0096 ug/mL
[30] = target: human LAG-3 protein with hFc tag (hLAG-3-hFc protein) (human) (UniProt P18627); experiment: ELISA, hLAG-3-hFc coated 1 ug/ml; 0.0019 ug/mL
[31] = target: human LAG-3 protein with hFc tag (hLAG-3-hFc protein) (human) (UniProt P18627); experiment: ELISA, hLAG-3-hFc coated 1 ug/ml; 0.0480 ug/mL
[32] = target: human LAG-3 protein with hFc tag (hLAG-3-hFc protein) (human) (UniProt P18627); experiment: ELISA, hLAG-3-hFc coated 1 ug/ml; 0.0000 ug/mL
[33] = target: human LAG-3 protein with hFc tag (hLAG-3-hFc protein) (human) (UniProt P18627); experiment: ELISA, hLAG-3-hFc coated 1 ug/ml; 30.0000 ug/mL

Chain of human LAG-3 (full length, on the cell surface) (human) (P18627 23-525 limits assumed): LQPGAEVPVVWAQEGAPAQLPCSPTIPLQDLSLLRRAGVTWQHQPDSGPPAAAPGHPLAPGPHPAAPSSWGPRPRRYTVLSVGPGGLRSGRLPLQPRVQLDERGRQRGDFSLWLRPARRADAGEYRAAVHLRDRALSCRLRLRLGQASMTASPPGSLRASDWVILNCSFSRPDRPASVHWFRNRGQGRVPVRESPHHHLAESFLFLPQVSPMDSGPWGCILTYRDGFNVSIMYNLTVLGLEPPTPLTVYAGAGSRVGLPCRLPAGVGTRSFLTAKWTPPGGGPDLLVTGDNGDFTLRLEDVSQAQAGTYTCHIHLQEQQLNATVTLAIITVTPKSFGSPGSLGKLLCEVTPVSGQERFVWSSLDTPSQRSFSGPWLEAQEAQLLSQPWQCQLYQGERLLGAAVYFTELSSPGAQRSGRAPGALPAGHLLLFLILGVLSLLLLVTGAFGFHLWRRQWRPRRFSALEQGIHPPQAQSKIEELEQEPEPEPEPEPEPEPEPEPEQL
Chain of human LAG-3 protein with hFc tag (hLAG-3-hFc protein) (human) (P18627 23-450): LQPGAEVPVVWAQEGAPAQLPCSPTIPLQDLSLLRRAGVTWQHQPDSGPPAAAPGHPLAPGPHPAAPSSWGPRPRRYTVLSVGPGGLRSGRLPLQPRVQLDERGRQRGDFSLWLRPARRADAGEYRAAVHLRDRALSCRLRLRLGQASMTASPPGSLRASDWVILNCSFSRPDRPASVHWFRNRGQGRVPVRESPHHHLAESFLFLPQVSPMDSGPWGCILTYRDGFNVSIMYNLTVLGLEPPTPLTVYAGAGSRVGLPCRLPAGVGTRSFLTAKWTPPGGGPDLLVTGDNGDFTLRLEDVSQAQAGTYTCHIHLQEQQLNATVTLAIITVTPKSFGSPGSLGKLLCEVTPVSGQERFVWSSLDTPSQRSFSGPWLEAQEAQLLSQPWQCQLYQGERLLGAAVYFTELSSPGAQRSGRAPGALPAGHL
Chain of monkey LAG-3 (full length, on the cell surface) (monkey) (P18627 other isoform, or with tags, fused parts or gaps limits assumed): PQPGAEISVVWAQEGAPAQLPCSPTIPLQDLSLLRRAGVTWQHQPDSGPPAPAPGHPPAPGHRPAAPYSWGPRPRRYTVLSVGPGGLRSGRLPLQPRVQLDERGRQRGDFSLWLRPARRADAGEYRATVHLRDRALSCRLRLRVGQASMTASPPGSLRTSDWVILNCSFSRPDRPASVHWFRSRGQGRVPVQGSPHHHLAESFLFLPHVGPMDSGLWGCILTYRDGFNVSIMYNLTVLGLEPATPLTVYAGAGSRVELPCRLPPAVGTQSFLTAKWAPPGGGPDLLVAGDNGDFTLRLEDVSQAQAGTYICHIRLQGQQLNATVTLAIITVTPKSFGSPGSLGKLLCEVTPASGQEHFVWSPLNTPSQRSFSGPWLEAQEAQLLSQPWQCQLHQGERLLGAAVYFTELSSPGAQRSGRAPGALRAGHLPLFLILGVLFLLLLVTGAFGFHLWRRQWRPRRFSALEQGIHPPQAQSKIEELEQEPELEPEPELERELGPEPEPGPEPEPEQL

## mIgG1 (murine IgG control) (antibody)
[1]
  Mean fluorescence intensity: 3.4 MFI and 4 MFI
[2]
  Mean fluorescence intensity: 3.3 MFI and 4.1 MFI
[3]
  Mean fluorescence intensity: 3.2 MFI and 4 MFI
[4]
  Mean fluorescence intensity: 2.7 MFI and 3.8 MFI
[5]
  Mean fluorescence intensity: 2.8 MFI and 4 MFI
[6]
  Mean fluorescence intensity: 2.9 MFI and 3.9 MFI
[7]
  Inhibition rate (%): 13.8% and 4%
[8]
  Mean fluorescence intensity: 2.8 MFI and 4.2 MFI
[9]
  Mean fluorescence intensity: 2.7 MFI and 3.9 MFI
[10]
  Inhibition rate (%): 3.4% and 2.8%
[11]
  Mean fluorescence intensity: 2.9 MFI and 3.8 MFI
[12]
  Inhibition rate (%): 2.8% and 4.2%
[13]
  Inhibition rate (%): 6.7% and 7.4%
[14]
  Mean fluorescence intensity: 2.9 MFI and 3.8 MFI
[15]
  Inhibition rate (%): 8.2% and -11.5%
[16]
  Inhibition rate (%): 13.7% and 1.8%
[17]
  Mean fluorescence intensity: 3.3 MFI and 4 MFI
[18]
  Mean fluorescence intensity: 3.2 MFI and 4 MFI
[19]
  Inhibition rate (%): 12.8% and -0.9%
[20]
  Inhibition rate (%): 5.3% and -3.9%
[21]
  Mean fluorescence intensity: 3.6 MFI and 4.2 MFI
[22]
  Mean fluorescence intensity: 3.5 MFI and 4 MFI
[23]
  Mean fluorescence intensity: 3.3 MFI and 4.1 MFI
[24]
  Mean fluorescence intensity: 3 MFI and 3.8 MFI
[25]
  mIL-2 (pg/mL), antigen-specific T lymphocyte stimulation test; control IgG 0.016 ug/mL: 177 pg/mL and 104 pg/mL
  mIL-2 (pg/mL), antigen-specific T lymphocyte stimulation test; control IgG 0.08 ug/mL: 175 pg/mL and 89.2 pg/mL
  mIL-2 (pg/mL), antigen-specific T lymphocyte stimulation test; control IgG 2 ug/mL: 174 pg/mL and 84.1 pg/mL
  mIL-2 (pg/mL), antigen-specific T lymphocyte stimulation test; control IgG 4 ug/mL (so in the source): 145 pg/mL and 84.2 pg/mL
  mIL-2 (pg/mL), antigen-specific T lymphocyte stimulation test; control IgG 10 ug/mL: 169 pg/mL and 108 pg/mL

## Negative protein (control of Table 2)
[26]
  OD450: 0.09 OD450
[27]
  OD450: 0.07 OD450 and 0.06 OD450
[28]
  OD450: 0.07 OD450 and 0.06 OD450
[29]
  OD450: 0.06 OD450
[30]
  OD450: 0.06 OD450
[31]
  OD450: 0.06 OD450
[32]
  OD450: 0.06 OD450
[33]
  OD450: 0.16 OD450 and 0.14 OD450
